Measurements: patent JP2010500380A

Biological target: 白血球IFN (leukocyte IFN, Sigma I-2396)
Experiment: cell-based or functional assay

percent block of bioactivity, RG bioassay, 600 pg leukocyte IFN: > 50%
B1: ACO-1 (antibody, V domains shown)
VH: QVQLQQPGAELVKPGASVKLSCKASGYTFTNYWMHWVKQRPGQGLEWIGEINPSHGRTIYNENFKSKATLTVDKSSITAFMQLSSLTSEDSAVYFCARGGLGPAWFAYWGQGTLVTVSA
VL: QIVLTQSPAIMSASPGEKVTLTCSAGSSVDSSYLYWYQQKPGSSPKLWIYSTSNLASGVPARFSGSGSGTSYSLTISSMEAEDAASYFCHQWSSYPFTFGSGTKLEIKR
